The values that follow come from patent publication EP4806913A1 (Vaxcell-Bio Co., Ltd., dated 2025).

This test deals with T1, recombinant EphA2 protein (R&D systems) (human, UniProt P29317 25-534, limits assumed).
T1 construct: Bought protein coated on the ELISA plate at 1 ug/mL; also called hEphA2; human antigen EphA2
As to the kind of experiment: ELISA: recombinant EphA2 coated at 1 ug/mL, monobody-amh diluted twofold from 500 nM, detected with HRP anti-c-Myc antibody, OD 450 nm.

T1 sequence (P29317 25-534 limits assumed): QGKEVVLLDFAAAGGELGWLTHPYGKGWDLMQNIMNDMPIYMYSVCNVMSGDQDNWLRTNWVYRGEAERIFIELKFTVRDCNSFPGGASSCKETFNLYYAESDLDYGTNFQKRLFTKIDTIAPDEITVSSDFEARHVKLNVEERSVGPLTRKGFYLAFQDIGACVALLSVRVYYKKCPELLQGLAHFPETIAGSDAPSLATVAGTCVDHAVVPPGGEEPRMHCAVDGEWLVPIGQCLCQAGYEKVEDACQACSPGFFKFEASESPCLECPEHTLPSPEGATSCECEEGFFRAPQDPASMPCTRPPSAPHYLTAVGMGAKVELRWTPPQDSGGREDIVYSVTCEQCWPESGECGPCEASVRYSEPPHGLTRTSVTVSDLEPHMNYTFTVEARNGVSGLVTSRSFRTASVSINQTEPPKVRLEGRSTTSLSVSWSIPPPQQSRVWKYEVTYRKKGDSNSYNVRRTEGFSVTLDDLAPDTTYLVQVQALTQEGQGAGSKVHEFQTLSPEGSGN

B1: E1-amh (E1 monobody with C-terminal AviTag-Myc-6xHis tag) (designed binder)
chain: VSDVPRDLEVVAATPTSLLISWYYPFCAFYYRITYGETGGNSPVQEFTVPRPSDTATISGLKPGVDYTITVYAVTCLGSYSRPISINYRT
notes: Expressed in E. coli BL21(DE3) from pETamh and purified by IMAC and size exclusion; also called non-hydrophilic monobody(E1); E1 monomer; not shown: amh tag (AviTag-Myc-6xHis) of the pETamh vector linked to the C-terminus
B1: the binding result is reported as “binds”.

B2: hpE1-amh (hydrophilic E1 monobody with C-terminal AviTag-Myc-6xHis tag) (designed binder)
chain: SSDSPRNLEVTNATPNSLTISWYYPFCAFYYRITYGETGGNSPSQEFTVPRPSDTATISGLKPGQDYTITVYAVTCLGSYSRPISINYRTEIDKPSQ
notes: Expressed in E. coli BL21(DE3) from pETamh and purified by IMAC and size exclusion; The gene was cloned at an NdeI site that includes the ATG start codon; also called hpE1 monobody; hydrophilic monobody(hpE1); not shown: amh tag (AviTag-Myc-6xHis) of the pETamh vector linked to the C-terminus
B2: the binding result is recorded as “binds”.
